Experimental data reported in patent US20140248710A1.
Ends that are not written are not given here.

Molecular target: G-131-C affinity purified goat polyclonal antibody against the N-terminus of cardiac troponin I (BiosPacific, Emeryville, Calif.)
Assay: Competition FRET: the unlabeled N-terminal CTnI peptide is titrated against the labeled peptide-oligo conjugates for binding to G-131-C. The antibody concentration of the inset is not given. [inset]

IC50 (read off the curve): 40 nM
B1: Unlabeled N-terminal CTnI peptide (peptide)
peptide: MADGSSDAAREPRPAC
modifications: not fully specified
